B1: SPATS1 (parent)
chain: YPEQSKGFHKAGSMLPPVNFSIVP
B2: ZNF263 (parent)
chain: FAHSSNLLRHQRIHTGERPYKCPE

Variants of: B1
Experiment: protein stability index of a GFP-peptide fusion (GPS, HEK-293T) (PSI 1-6); higher = more stable
Conditions: c terminus: a fixed tail appended
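Further: lentivirally expressed fusions sorted by FACS into six bins by GFP to DsRed ratio, PSI derived from sequencing read proportions per bin multiplied by bin number.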

Protein stability index: each site, then its substitutions
P24: K 2.08 | A 1.66 | E 2.74 | W 3.28 | G 2.37 | S 1.94 | F 1.83 | D 2.43 | V 1.46 | Q 1.75 | R 1.82 | H 1.53 | M 2.5 | C 1.65 | Y 2.08 | I 3.47 | N 1.84 | L 3.85 | T 3.33
F20: E 2.13 | P 2.66 | R 2.23 | C 2.13 | G 1.71 | S 2.14 | A 2.26 | H 2.19 | W 1.57 | Y 2.03 | V 2.88 | K 2.19 | I 1.73 | D 2.39 | T 2.24 | Q 2.47 | M 1.97 | L 1.97 | N 2.22
P17: H 2.75 | T 1.59 | E 1.85 | A 2.63 | N 1.9 | R 1.61 | I 1.75 | S 1.94 | Q 1.76 | G 1.83 | F 1.58 | D 1.94 | W 2.59 | V 2.22 | M 1.42 | Y 1.8 | K 1.59 | C 1.41 | L 1.62
V23: I 2.47 | C 1.8 | A 2.57 | T 1.74 | R 1.9 | M 1.93 | H 1.43 | L 1.94 | Q 2.26 | G 1.98 | S 1.97 | W 1.87 | K 2.1 | N 2.35 | D 1.88 | Y 1.75 | E 2.42 | F 1.59
G12: A 1.76 | L 2.24 | D 2.08 | P 2 | Q 1.66 | R 2.26 | T 2.04 | W 2.08 | V 1.79 | I 1.49 | Y 2.64 | E 1.95 | S 1.84 | H 1.94 | M 1.7 | C 2.75 | F 1.64 | K 1.98 | N 1.94
V18: Q 2.2 | H 1.95 | F 1.73 | K 2.06 | W 1.76 | S 1.96 | T 2 | I 1.84 | P 2.19 | E 1.81 | Y 1.91 | R 1.62 | D 2.26 | G 2.48 | N 2.4 | C 2.2 | A 2.56 | L 1.28 | M 2.02
M14: W 1.91 | L 1.74 | D 1.96 | A 2.13 | T 1.99 | P 2.07 | I 1.83 | H 1.87 | G 1.97 | F 2.28 | Y 2 | Q 2.08 | E 1.88 | R 2.8 | S 2.17 | C 2.25 | N 2.37 | K 2.47 | V 2.03
P16: T 1.9 | L 1.76 | V 2.16 | G 1.65 | C 1.97 | S 1.43 | E 1.95 | F 1.98 | H 1.44 | Q 2.02 | M 1.52 | D 1.94 | I 1.54 | K 2.01 | W 1.96 | Y 1.78 | R 1.99 | A 1.95 | N 1.65
K10: Y 2.15
N19: E 1.91 | I 2.41 | V 2.07 | S 2.43 | Y 2.26 | A 2.17 | M 1.75 | T 1.75 | L 2.24 | Q 1.87 | K 1.82 | G 1.74 | D 1.97 | F 2.48 | H 1.91 | W 2.18 | P 1.88 | C 1.56 | R 1.85
S21: C 1.79 | M 2.06 | Y 2.6 | F 1.6 | G 1.81 | Q 1.88 | L 2.08 | V 2.24 | K 2.15 | D 1.87 | T 2.52 | P 1.96 | I 2.13 | N 2.4 | E 1.94 | R 1.8 | A 1.8 | W 2.43 | H 1.49
L15: E 2.37 | I 1.84 | D 2.29 | A 1.63 | G 1.58 | N 2.02 | M 1.8 | T 2.16 | R 1.9 | Q 2.47 | S 2.04 | C 2.05 | W 1.47 | Y 2.42 | K 1.72 | F 1.84 | V 1.85 | H 2.27 | P 2.42
A11: I 2.7 | N 1.81 | D 2.29 | P 2.19 | V 1.67 | T 1.83 | R 2.33 | C 2.03 | G 1.98 | M 1.84 | F 2.1 | S 1.78 | W 1.82 | L 1.55 | E 2.78 | K 2.15 | H 2.21 | Y 1.74 | Q 2.17
I22: H 1.75 | M 2.04 | K 1.65 | V 1.82 | R 2.52 | P 2.01 | S 2.48 | L 2.34 | G 2.52 | D 2.47 | F 1.97 | Q 2.26 | E 2.33 | T 2.53 | N 2.31 | W 1.24 | Y 1.75 | A 2.22 | C 1.76
S13: P 1.88 | V 1.67 | R 2.15 | D 2.17 | E 2.24 | A 1.68 | G 1.85 | T 1.7 | M 1.69 | K 1.95 | C 1.73 | L 1.88 | Y 1.78 | I 1.74 | F 1.97 | N 2.13 | H 1.9 | W 2.1 | Q 1.97

Variants of: B2
Experiment: as above
Conditions: c terminus: a fixed tail appended

Protein stability index: each site, then its substitutions
A2: K 3.08 | N 3.34 | P 2.67 | D 3.41 | M 2.83 | G 3.17 | E 3.69 | T 2.43 | L 2.57 | F 2.17 | I 1.89 | S 3.19 | C 2.62 | Q 2.73 | W 2.18 | Y 2.55 | V 3.61 | H 1.82 | R 2.82
F1: G 4.33 | K 3.54 | P 3.95 | D 3.9 | I 3.77 | R 3.46 | M 3.9 | T 3.67 | S 3.34 | Q 4.13 | A 3.8 | L 2.67 | H 4.22 | N 3.9 | Y 2.51 | W 3.29 | E 3.92 | C 2.36 | V 3.01
S4: L 2.48 | G 2.45 | C 2.11 | I 2.09 | A 2.15 | F 2.55 | H 1.91 | K 2.28 | D 2.94 | E 3.05 | M 1.86
H3: N 2.48 | V 1.86 | W 1.25 | P 2.5 | Q 2.03 | F 1.89 | D 1.94 | A 2.15 | G 2.12 | C 2.07 | Y 1.96 | M 2.41 | I 2.34 | S 2.22 | E 1.98 | K 1.86 | L 2.61 | R 2.04 | T 2.06

Source: the supplement of paper PMC10567573
